Results taken from the nanobody polyreactivity screen of Harvey et al. (2022).

Experiment: yeast display, Sf9 membrane polyspecificity reagent, FACS + sequencing; frameworks hold sequencing errors
Summary of the method: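 In a synthetic yeast display library (Saccharomyces cerevisiae BJ5465), nanobody expression was induced with galactose for 36–48 hours. FACS gates were set low and high (top ~1%) using anti-HA fluorescence for expression and streptavidin fluorescence for binding of the Sf9 membrane reagent. Each polyreactivity label is drawn from the gate of origin.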

| Sequence | polyreactivity (PSR sort gate) |
| --- | --- |
| QVQLVESGVGLVQAGGSLRLSFASSGRIFPTNAMGSYSQAPRKEREFVPAITWRGGSTYYADSVKGRFTISRDNAKNTVYLQINSLKPEDTAVYYCAATGHIVFFRAYDYGYWGQGTQVTVSS | low polyreactivity |
| QVQLVESGVGLVQAGGSLRLTCAASGRIFVRNAMGWYRQAPGKEMELVARITSSTGRTYYADSVKGRFTISRDNAKNTVYLQFTSLKPEDTAVYYCAVRYFYQFWAYDYWGKGTQVTVSS | high polyreactivity |
| QVQLVESGVGLVQAGGSLRLTCAASGSIFTAYPMGSYRQAPGKERELVAAISRSGGRTYYADSVKGRFTISRDNAQITVNFQFNSLKPEDTAVYNCAAASRSTNYNYYYWGLGTQVTVSS | high polyreactivity |
| QVQLVESGVGLVQAGGSLRVSCAASGSTIPIYAMGWYRQAPGKERELVAVISRSGGITYYADSVKGRFTISRDNAKNTVYLQMNSLKPEDTAVYYCNARTRGWTPDRGYWGQGTQVTVSS | high polyreactivity |
| QVQLVESGVGLVQAGGSLSLSCAASGCTLRYYVMGWYRQAPGKERELVASISWSGDSTYYADSVKGRFTISRDNAKNTVYLQMNSLKPEDTAVYYCAARRWYVHYFAYGYWGQGTQVTVSS | low polyreactivity |
| QVQLVESGVGLVQAGGSLSLSCAATGRIFNSYMGWYRQAPGKERELDAAISWSSGTSTYYADSVKGRFTISRDNAKNTVYLQMNSLKPEDTAVYYCNADDYYGPYPEEYDYWGQGTQVTVSS | low polyreactivity |
| QVQLVESGVGLVQAGGSLSLSCASSGFIFSANDMGWYRPAPGKERELVADIDSSGRTNYADSVKGRVTISRDNAKNTVYLQMNSLKPEDTAVYYCATPPDDTGGGYRGYDYWGQGTQVTVSS | low polyreactivity |
| QVQLVESGVGLVQAGGSRRLSCAASGRTFFDNVMGWYRQAPGKERELVAAIRSAGTTYYADSVKGRFTISRDNAKNTVYLQMNRLKPEDTAVYYCAATNRYYWSYFYQAKYGYWGQGTQVTVSS | low polyreactivity |
| QVQLVESGVGLVQAGGTLRLSCAASGFIFRKYGMGWYRQAPGKERELVAAIRFTGGSTRYADSVKGRFTISRDNAKNTVYLQMNSLIPEDTAVYYCNADRVYVRGRFTYDYWGQGTQVTVSS | low polyreactivity |
| QVQLVESGVGLVQAGGTLRLSCAASGSIFDPYAMGWYRQAPGKERELVAAITYSVGGTTYYADSVKGRFTISRDNAKNTVYLQMNSLKPEDTAVYYCAAEWWGNPFDYWGQGTQVTVST | high polyreactivity |
| QVQLVESGVGLVQAVGSLRISCAASGRIFQPYAMGWYRQAPGNERELVARITRRGVSTYYADSVKGRFTISRENAKNTVYLQMNSLKPEDTAVYYCAAELFGGYYYWGLGTQVTVSS | high polyreactivity |
| QVQLVESGVGVVQAGGSLRLSCAASGSTYVDNAMGWYRQAPGKERELVAGNSWSGASTYYADSVKGRFTISRDNAKNTFYLQMNSLKAEDTAVYYCATRVRAYYHQSWGYTERVYWGQGTQVTVSS | high polyreactivity |
| QVQLVESGVVLVQAGGSLPLSCSASGRIFIHYAMGWYRQAPGKERELVAAISASGGTTNYADSVKGRFTISRDNAKNTVYLQMNSLKPEDTAVYYCAAEGYRSWRGLRSRYYYWGEGTQVTVSS | high polyreactivity |
| QVQLVESPGGLVQAGGSLRLSCAASGSIFGSYAMGWYRQEPGKEREFVAVITSASTNYADSVKGRFTISRDNAKNTVNLQLNSLKPEDTAVYYCNKRGTRIRRTNKSHGVDYWGQGTQVTVSS | low polyreactivity |
| QVQLVESRAGLVQAGGSLRLSCAASGNIFDIYAMGWYRQAPGKERELVAAISSGGSTYYADSVKGRFTISRDNAKNTVYLQLNSLKPEDTAVYYCAESRVGYYRYEYWGQGNQVTVSS | low polyreactivity |
| QVQLVESRGALVQAGGSLRLSCAASGSIFSRYAMGWYRQAPGKERELVAAIRWTDSSTYYADSVKGRFTISRDHAKNTVYLQMNSLKPEDTAVYDCAKVYEGGSNKVDYWGQGTQVTVSS | low polyreactivity |
| QVQLVESRGCLVQAGGSLRLSCAASGFIFAYYAMGWYRQAPRKERELVGAISSGGTTNYADSVMGRFTSSRDNAKNTVYLQMNSLKPEDTAVYYCAAAWGYYSTTIYKYSFNYDFWGQGTQVTVSS | high polyreactivity |
| QVQLVESRGCLVQAGGSLRLSCAASGRTFYRYVMGWYRQAPGKEMELVAAISEGGGSTFYADSVKGRFTISRDNAKNTDYLQMNSLKPEDTAVYYCAADYYVRGGFFRYDYWGQGTQVTVSS | low polyreactivity |
| QVQLVESRGCLVQPGGSLLLSCAASGIIFGHYVMGWYRQAPGKERELVAAISSRGGNTYYADSVKGRFTISRDNAKNTVYLQMNSLKPEDTAVYYCAADRYATPMDYWGQGTQVTVSS | high polyreactivity |
| QVQLVESRGGIVQAGGSLRLISAASGRTFGWNAKGWYRQERGKERELVAAISLRGTSTYYADSVKGRFTISRDNAKNTVYLQMNSLKPEDTAVYYCNTLVYVPYHEDYWGQGTQVTVSS | high polyreactivity |
| QVQLVESRGGLVQAARSLRLSFAASGSIFSSNAMGWYRQAPGKERELVAAITSVGSTTYADSVKGRFTISRDNAKNTVYLQMNSLKPEDTAVYYFAADPVYRYYHGWTYVDYVYWGQGTQVTVSS | low polyreactivity |
| QVQLVESRGGLVQAGASLRLSCAASALIFGYYAMGCYRQAPVKEREFVAAIDGSDGTTYYADSVKGRFTIARDNAKNTVYLQMNSLKPEDTAVYYCNADSSSYSSDLGYDYWGQGTQVTVSS | low polyreactivity |

| Sequence | polyreactivity (PSR sort gate) |
| --- | --- |
| QVQLVESRGGLVQAGCSLRLRCAASGYIFYGYDKGWYRPAPGKERELVAGITYSGGGGTHYADSVKGRFTISRDNAKNTVYLQMNSLKQEDRGVYYCAKADPQLNRTYYSYGMDSWGQGTQVTVSS | low polyreactivity |
| QVQLVESRGGLVQAGGILRLSCAACGSTFPKYAMGWYRQAPGKERELVAAITGISGRTYYADSLKGRFTISRDNAKNTVYLQMNSLKPEDTAVYYCNARIFAGWSIYNYWGQGTQVTVSS | high polyreactivity |
| QVQLVESRGGLVQAGGSLRISCAASGRIFGYNAMGWYRQAPGKERELVAAISASGGRTYYADSVKARFTISRDNAKNTVYLQMNSLKPEDTAVYYCATKYRSFYSYDYWGQGTQVTVSS | high polyreactivity |
| QVQLVESRGGLVQAGGSLRLICAASGFILDTSAMGWYRQAPGKERALVAAISASGSSTYYADSVKGRFTISRDNAKNTLYLQMNSLKPEDTAVNYCAAKDTGYGYGFPRLDYWGQGTQVNVSS | low polyreactivity |
| QVQLVESRGGLVQAGGSLRLSCAASGFIFGVNAMGWYRQAPGKERELVAAITRNGGSTYYADSVKGRFTISRDYAKNSVYLQMNSLKPEDTAVYYCAKYVRRAPSTFDVDYWGQGTQVTVSS | high polyreactivity |
| QVQLVESRGGLVQAGGSLRLSCAASGFTFPFYAMGSYRQAPGKERELVAAISISGGSTHYADSVKGRFTISRDNAKNTVYLQMNSLKPEDTAVYYCAAEYGVVIYIDGWYPTLHEYYYSGQGTQVTVSS | high polyreactivity |
| QVQLVESRGGLVQAGGSLRLSCAASGFTFRYYAMGWYRQAPGKERELVARITRCASTSYADSVKGRFTISRDNAKNTVYLLMISLIPEDTAVYYCAADSPAGGYVFPELPYDYWGQGTQVTVSS | low polyreactivity |
| QVQLVESRGGLVQAGGSLRLSCAASGFTIDTYAMGWYRQAPGKERELVAGISWSGGSTYYADSVKGRFTISRDNAKNTVYLQMNSLKPEDTAVYYCNARDYSVGRYDYWGQGTQVTVSS | low polyreactivity |
| QVQLVESRGGLVQAGGSLRLSCAASGIIFFKYAMGWYRQAPGKERELVAAISIDGSTNYADSVKGRFTISRDNAKNTVYLQMNSLKPEDTAVYYCNAKRYGFFYWQGDYWGQGTQVTVSS | low polyreactivity |
| QVQLVESRGGLVQAGGSLRLSCAASGITFRTYSMGWYRQAPGKERELVAGIRTRTGSTYYADSVKGRFTISRDNAKNTVYLQMNSLKPEDTAVYYCAAKGSGYYGRQRIYSYTYDYWGQGTQVTVSS | high polyreactivity |
| QVQLVESRGGLVQAGGSLRLSCAASGITFTRNVMGWYRPAPGKERELVAGISRSGGRTYYADSVKGRFTISRENAKNTVYLQMNSLKPEDTAVYYCAADYSRRTRVDDDYDYWGQGTQVTVSS | high polyreactivity |
| QVQLVESRGGLVQAGGSLRLSCAASGLIFGFNTMGWYRQAPGKERELVAAITSGGGSTYYADSVKGRFTISRDNAKNTVYLQMNSLKPEDTAVYYCNAGGGRWRARQWHDYWGQGTQVTVSS | low polyreactivity |
| QVQLVESRGGLVQAGGSLRLSCAASGLIFRHYAMGWYRQAPGKERELVAAITGSGSTYYADSVKGRFTISRDNAKNTVYFQMNSLKPEDTAVDYCAATVYSSGAMDYWGQGTQVTVSS | low polyreactivity |
| QVQLVESRGGLVQAGGSLRLSCAASGRIFASYTMGWYRQAHGKERELVAAISWRGDGTYYADSVKGRFTISRDNAKNTVYLQMNSLKPEDTAVYYCAADYVYYYHEYDYWGQGTQVTVSS | low polyreactivity |
| QVQLVESRGGLVQAGGSLRLSCAASGRIFSWYSMGWYRQPPGTERELVAGISWIGGSTYYADSVKGRFTFSRDNAKNTVYLQMISLKPEDTAVYYCNAEYFGEYRDYGYWGQGTQVTVSS | low polyreactivity |
| QVQLVESRGGLVQAGGSLRLSCAASGRNFRFNAMGWYRQEPGKERELVAAISASGGITYYADSVKGRFTISRDNAKNTVYLQMNSLKPEDSAVYYCAADLYATWSYFFTWLDNWGQGTQVTVSS | high polyreactivity |
| QVQLVESRGGLVQAGGSLRLSCAASGRTFSNAMGWYRQAPGNERELVADISSGGSTNYADSVKGRFTISRDNAKNTVYLQMNSLKPEDTAVYYCAAVSGSRYGYSDDYWGQGTQVTVSS | low polyreactivity |
| QVQLVESRGGLVQAGGSLRLSCAASGRTFWYKAMGWYRQAPGKERELVAAISKSAAITYYADSVKGRFTISRDNAKNTVYLQMNSLKPEDTAVYYCNAGVRAVNRKYDYWGQGTQVTVSS | high polyreactivity |
| QVQLVESRGGLVQAGGSLRLSCAASGSIFLYYARGRSRQSPGKERELVAAIRRGGNTNYADSVKGRFTISRDNAKNTVYLQLNSLKPEDTAVYYCAAAQYSRYSRVPNYYAGTYYYWGQGTQVTVSS | low polyreactivity |
| QVQLVESRGGLVQAGGSLRLSCAASGSIFPFYAKGWYRQAPGKEREFVASISSGGSTNYADSVKGRFTISRDNAKNTVYLQMNSLKPEDTAVYYCNADVPYRWDTWFQVVYPESYDYWGQGTQVTVSS | low polyreactivity |
| QVQLVESRGGLVQAGGSLRLSCAASGSIFRSNGMGWYRQPPGTERELVAAIRTSGGSTNYADSVKGRFTISRDNAKNTVSLQMNSLKPEDTAVYYCNTRDRGLGMMEYWGQGTQVTVSS | low polyreactivity |
